Results on 2 molecules are retold here after patent publication US20110293511A1 (LUDWIG INSTITUTE FOR CANCER RESEARCH, published 2011).

Ends that are not written are not given here. * marks the point of attachment. Biotin = O=C1N[C@H]2[C@H](CS[C@H]2CCCCC(=O)*)N1

Experiment [1] has as its target T1, anti-idiotype antibody LMH-12.
T1 construct: mouse IgG1 kappa; also called clone 5B8; SB8
The experiment can be described thus: sandwich ELISA: capture on plate-bound LMH-12 (10 µg/ml), detection with biotinylated LMH-12 and avidin-HRP.

In experiment [2] the target is T2, de2-7 EGFR unique junctional peptide (human).
T2 construct: non-biotinylated; also called Junction Peptide
T2 peptide: LEEKKGNYVVTDH-OH
Kind of experiment: dot-blot immune stain.

Experiment [3] deals with T3, biotinylated de2-7 specific peptide (Biotin-LEEKKGNYVVTDH) (human).
T3 construct: also called unique de2-7 EGFR peptide
T3 peptide: Biotin-LEEKKGNYVVTDH
Kind of experiment: ELISA, biotinylated peptide on streptavidin plates. Background: ELISA stands for enzyme-linked immunosorbent assay.

The target of experiment [4] is T4, Peptide C, C-terminal biotinylated de2-7 peptide (human, C-terminal biotin; the reagent list prints it on an added lysine, LEEKKGNYVVTDH(K-Biot)-OH).
T4 peptide: LEEKKGNYVVTDH
The experiment can be described thus: BIAcore, Peptide C on streptavidin chip. A general note: SPR reads the build-up and loss of mass on a sensor chip optically.

Experiment [5] concerns the target EGFR fragment 1-176, yeast-displayed (human, UniProt P00533 25-200). The experiment can be described thus: flow cytometry on yeast displaying the EGFR fragment, % positive cells. Background: In flow cytometry, cells or beads pass a laser one at a time.
Experiment [6] concerns the target EGFR fragment 475-621, yeast-displayed (human, UniProt P00533 499-645). The description is as above.
Experiment [7] addresses T5, EGFR fragment 1-294, yeast-displayed (human, UniProt P00533 25-318).
T5 construct: range 1-294
The experiment can be described thus: flow cytometry, indirect immunofluorescence on yeast displaying EGFR fragment 1-294.

B1: chimeric antibody ch806 (antibody, human IgG1, V domains shown)
VH: DVQLQESGPSLVKPSQSLSLTCTVTGYSITSDFAWNWIRQFPGNKLEWMGYISYSGNTRYNPSLKSRISITRDTSKNQFFLQLNSVTIEDTATYYCVTAGRGFPYWGQGTLVTVSA
VL: DILMTQSPSSMSVSLGDTVSITCHSSQDINSNIGWLQQRPGKSFKGLIYHGTNLDDEVPSRFSGSGSGADYSLTISSLESEDFADYYCVQYAQFPWTFGGGTKLEIKR
notes: also called chAb806
For B1, the concentration for a half-maximal effect (EC50 (read off the curve)) (in general, the midpoint of the concentration-response curve) in experiment [1] is ~0.6 µg/mL.

B2: mAb806 (antibody, V domains shown)
VH: B1 VH
VL: B1 VL
notes: murine IgG2b
Consider B2, for which the binding result was “no binding” in experiment [2]; “no binding” in experiment [3]; “no binding (tested: 100 nM)” in experiment [4]; “no binding (tested: 10 µg/ml (single concentration))” in experiment [5]; “no binding (tested: 10 µg/ml (single concentration))” in experiment [6]; “no binding (tested: 10 µg/ml (single concentration))” in experiment [7]. Further, in experiment [1], the “EC50 (read off the curve)” value is ~0.07 µg/mL.
